Source: patent US4937390A, “Compound useful for the production of 3-deoxy-3-fluoro-myo-inositol” (University of Pittsburgh, priority 1989, dated 1990)

Substrate: O[C@H]1[C@H](O)[C@@H](O)[C@H](O)[C@@H](O)[C@H]1O
Test: [3H]myo-inositol uptake by the myo-inositol transporter in PC12 cells
Assay type: cell-based, rat
Conditions: other: Lineweaver-Burke plots, [3H]myo-inositol 25 nM with increasing unlabeled myo-inositol, 37.0 °C
Description: To determine if the effect of the fluoro-myo-inositol analogs might be mediated by the blockade of the myo-inositol transporter, which is responsible for uptake and accumulation of myo-inositol into the cell, the ability of these two compounds to block [^3 H]myo-inositol transport was studied directly.
The uptake of [^3 H]myo-inositol by the myo-inositol transporter was determined as follows:
PC12 cells were gently detached and maintained in a suspension culture in RPMI medium (both myo-inositol and serum free) at 37° C. ]^3 H]myo-inositol was added to this culture at a concentration of 1μCi/ml. Aliquots of this suspension were removed at the indicated time, diluted in 10 volumes of ice-cold PBS containing 10 mM unlabelled myo-inositol to stop the uptake process, centrifuged at 4° C. for 20 minutes at 50 xg. The cell pellet, which contained the transported [^3 H]myo-inositol, was dissolved in dilute NaOH and the radioactivity quantified by liquid scintillation counting.
The […] and Vmax of myoinositol were determined from LineweaverBurke plots
of the uptake of [^3 H]myoinositol (25 nM) in the presence of
increasing concentrations of unlabeled myoinositol in PC12 cells. The Ki
of the two fluoromyo-inositol analogs was determined by conducting the
uptake studies in the presence of a fixed concentration (1 mM) of each

B1: myo-inositol transporter (Rattus norvegicus) (protein)
chain: MRAVLETADIAIVALYFVLVMCIGFFAMWKSNRSTVSGYFLAGRSMTWVAIGASLFVSNIGSEHFIGLAGSGAASGFAVGAWEFNALLLLQLLGWVFIPIYIRSGVYTMPEYLSKRFGGHRIQVYFAALSLLLYIFTKLSVDLYSGALFIQESLGWNLYVSVILLIGMTALLTVTGGLVAVIYTDTLQALLMIIGALTLMVISMMKVGGFEEVKRRYMLASPNVASILLTHNLSNTNSCMVHPKADALKMLRDPTDEDVPWPGFILGQTPASVWYWCADQVIVQRVLAAKNIAHAKGSTLMAGFLKLLPMFIIVVPGMISRILFVDDIACINPEHCMQVCGSRAGCSNIAYPRLVMELVPVGLRGLMMAVMIAALMSDLDSIFNSASTIFTLDVYKLLRNNASSRELMIVGRIFVAFMVVISIAWVPIIVEMQGGQMYLYIQEVADYLTPPVAALFLLAIFWKRCNEQGAFYGGMAGFVLGAIRLILAFTYRAPECDQPDNRPSFIKDIHYMYVATALFWITGLITVIVSLLTPPPTKDQIRTTTFWSKKTVVTKESCSQKDEPYKMQEKSILRCSENSEVVSHTIPNGKSEDSIKGLQPEDVNLLVTCREEGNPVASMGHSGAETPVDAYSNGQAALMGERAREKETESRSRYWKFIDWFCGFKSRSLSKRSLRDSMDEEAVCLQMLEETPRVRVILNIGLFAVCSLGIFMFVYFSL
notes: PC12 cells were gently detached and maintained in a suspension culture; endogenous in cells; host or cells: PC12 cells
Km: 45 µM | Vmax: 2.27 nmol/mg/h
